Target: taxol-stabilized microtubules
Assay: co-sedimentation; microtubule spin-down from DT40 lysates (about 2 mg/ml) mixed with taxol-stabilized microtubules (0.2 mg/ml) or non-taxol tubulin, 30 °C 30 min, pelleted through a 1 M sucrose cushion in BRB80, western blotting

fold reduction in microtubule binding compared with CEP215-TAP and CEP215(ΔHBR)-TAP: 3.4 fold
Substance: CEP215(ΔCM1)-TAP (domain or fragment)

— PMC4802056
